Values after ≈ are worked out from the molar mass of the structure shown. Blank lines part the entries; values can stand above or below the molecule they belong to. Numbered stars: 1 amine (or outer) side, 2 acyl side, 3 side chain; on linkers, the order of the positions; unused ones are H or OH. Bridge positions count the residues as written; N and C are the ends. Square brackets hold non-standard residues; d marks the D form. Primed or numbered codes have the meaning given here. MB(4) = Monomer B (PyrS), N-Alloc pyrrolidine stapling residue, (S)-3-amino-1-(allyloxycarbonyl)pyrrolidine-3-carboxylic acid, C=CCOC(=O)N1CC[C@@](N[*:1])(C(=O)[*:2])C1; R7″ = stapling residue, (R)-2-(6-heptenyl)alanine (drawn only), C=CCCCCC[C@@](C)(N[*:1])C(=O)[*:2]; R7 = (R)-2-(6-heptenyl)alanine, C=CCCCCC[C@@](C)(N[*:1])C(=O)[*:2]; αMeW = C[C@](N)(Cc1c[nH]c2ccccc12)C(=O)O; R8 = C=CCCCCCC[C@@](C)(N)C(=O)O
Experiments:
[1] = Solubility in DPBS (A280 of supernatant); format: physicochemical; conditions: DPBS; read-out: solubility
Procedure: Suitable assays for assessing solubility are widely known in the art and can be utilized in accordance with the present disclosure. In some embodiments, in an exemplary protocol, dried peptide was reconstituted in DPBS (DPBS, 1×, cell culture grade, Sigma D8537) in triplicate, vortexed, sonicated and then centrifuged. Absorbance of the supernatant was measured at A280 (Nanodrop 2000) and the concentration was determined using the extinction coefficient for tryptophan. Exemplary solubility data are presented in, e.g., Table 2.

full-length beta-catenin = molecular target: T1, full-length beta-catenin (UniProt P35222 2-781, limits assumed); test: competition FP, grade of FP EC50 (+: 500-5000 nM)
T1 construct: mature; also called full-length ß-Catenin; β-catenin
T1 sequence (looked up): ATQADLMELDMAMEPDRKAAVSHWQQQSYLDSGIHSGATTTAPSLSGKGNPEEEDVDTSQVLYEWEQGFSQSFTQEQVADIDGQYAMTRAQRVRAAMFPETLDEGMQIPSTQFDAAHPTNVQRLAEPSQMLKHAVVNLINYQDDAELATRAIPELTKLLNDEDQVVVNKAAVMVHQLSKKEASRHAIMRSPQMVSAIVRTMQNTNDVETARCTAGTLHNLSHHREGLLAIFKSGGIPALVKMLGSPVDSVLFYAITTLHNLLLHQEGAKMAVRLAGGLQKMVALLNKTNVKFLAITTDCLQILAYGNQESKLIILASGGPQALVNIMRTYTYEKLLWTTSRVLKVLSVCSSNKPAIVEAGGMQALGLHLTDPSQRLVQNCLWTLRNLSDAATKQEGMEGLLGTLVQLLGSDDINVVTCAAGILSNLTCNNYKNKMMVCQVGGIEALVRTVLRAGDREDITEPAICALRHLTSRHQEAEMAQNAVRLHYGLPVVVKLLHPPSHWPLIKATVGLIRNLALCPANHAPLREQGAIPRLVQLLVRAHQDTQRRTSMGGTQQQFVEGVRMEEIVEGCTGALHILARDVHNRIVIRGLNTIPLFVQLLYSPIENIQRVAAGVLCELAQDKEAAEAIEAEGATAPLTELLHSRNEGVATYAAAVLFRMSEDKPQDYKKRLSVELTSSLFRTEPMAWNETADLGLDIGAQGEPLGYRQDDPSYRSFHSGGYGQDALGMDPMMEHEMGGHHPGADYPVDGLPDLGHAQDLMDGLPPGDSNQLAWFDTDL
Procedure: In some embodiments, a competition fluorescence polarization assay is used to assess binding of provided compounds to beta-catenin. In an exemplary procedure, solutions of provided compounds, e.g., provided stapled peptides, were prepared in a buffer (e.g., 50 mM Tris pH 8.0, 250 mM NaCl, 2% glycerol, 0.5 mM EDTA, 0.02% w/v sodium azide) using a 3-fold serial dilution from 5 µM. Probe solution (15 nM full-length ß-Catenin, 20 nM FITC labeled peptide in buffer) was prepared and incubated for a period of time, e.g., 5 minutes, and the a volume, e.g., 40 µL per well plated in suitable plate, e.g., a black polystyrene 384-well plate (Corning). Equal volume of the serial diluted peptide was added to the plate and incubated protected from light for 15 minutes prior to read. Reads were performed on a Spectramax M5 (Molecular Devices) in duplicate. Suitable probe was FITC-PEG1-PQ-S5-ILD-S5-HVRRVWR (SEQ ID NO: 1) (hydrocarbon staple formed by two S5 via olefin metathesis) and/or FITC-bA-PQ-S5-ILD-S5-HVRRVWR (SEQ ID NO: 3) (hydrocarbon staple formed by two S5 via olefin metathesis). […] Another peptide, FPO217c (Ac-AR_8ILDAHIM$B5$RVW (SEQ ID NO: 280), with N-terminal proline removed and valine replaced with isoleucine compared to FP0025c) was prepared.

Molecule: AXILDAHIXRVW (not fully specified; Ac-A-MI-I-L-D-A-H-I-S6-R-V-W-NH2; carbamate staple MI/S6) [FP0507c]
FP EC50 (full-length beta-catenin): 500 to 5000 nM

B1: FP0495a (peptide)
peptide: Ac-A[R7]ILDAHI[MD]RVW-NH2
modifications: staple 2-9; not fully specified; printed as Ac-A-R7-I-L-D-A-H-I-MD-R-V-W-NH2; also: amino staple R7/MD (-N(R')-, after CO2 extrusion from carbamate staple)
FP EC50 (full-length beta-catenin): 500 to 5000 nM

Molecule: AXILDAHIXRVW (not fully specified; Ac-A-R4-I-L-D-A-H-I-MH-R-V-W-NH2; amino staple R4/MH) [FP0509a]
FP EC50 (full-length beta-catenin): 500 to 5000 nM

Continued, values first:

solubility thermodynamic [1]: 7 µM (≈ 11.1 µg/mL)
Molecule: CC[C@H](C)[C@@H]1NC(=O)[C@H](Cc2c[nH]cn2)NC(=O)[C@H](C)NC(=O)[C@H](CC(=O)O)NC(=O)[C@H](CC(C)C)NC(=O)[C@H]([C@@H](C)CC)NC(=O)[C@](C)(NC(=O)[C@H](C)NC(C)=O)CCCCCCC=CCOC(=O)N2CC[C@@](C(=O)N[C@@H](CCCNC(=N)N)C(=O)N[C@H](C(=O)N[C@@H](Cc3c[nH]c4ccccc34)C(N)=O)C(C)C)(C2)NC1=O (single isomer, unassigned) [FPO217c, Ac-AR8ILDAHIMBRVW (SEQ ID NO: 280)]

FP EC50 (full-length beta-catenin): 500 to 5000 nM
Molecule: AXILDAHIXRVW (not fully specified; Ac-A-MG-I-L-D-A-H-I-ME-R-V-W-NH2; carbamate staple MG/ME) [FP0596c]

FP EC50 (full-length beta-catenin): 500 to 5000 nM
Molecule: Ac-A[R7″]ILDAHI[MA]RVW-NH2 (staple 2-9; not fully specified; printed as Ac-A-R7-I-L-D-A-H-I-MA-R-V-W-NH2) [FP0516a Isomer 2]

FP EC50 (full-length beta-catenin): 500 to 5000 nM
Molecule: Ac-A[R8]ILDAHI[MB(4)]RV[αMeW]-NH2 (staple 2-9) [FP0631c]

FP EC50 (full-length beta-catenin): 500 to 5000 nM
Molecule: AXILDAHIXRVW (not fully specified; Ac-A-R5-I-L-D-A-H-I-MH-R-V-W-NH2; amino staple R5/MH) [FP0510a]
